This is an account of results in IntAct's records for PubMed 31515488.

To fix the notation:
B1: DNA endonuclease RBBP8 (Homo sapiens), Q99708 (parent)
chain: MNISGSSCGSPNSADTSSDFKDLWTKLKECHDREVQGLQVKVTKLKQERILDAQRLEEFFTKNQQLREQQKVLHETIKVLEDRLRAGLCDRCAVTEEHMRKKQQEFENIRQQNLKLITELMNERNTLQEENKKLSEQLQQKIENDQQHQAAELECEEDVIPDSPITAFSFSGVNRLRRKENPHVRYIEQTHTKLEHSVCANEMRKVSKSSTHPQHNPNENEILVADTYDQSQSPMAKAHGTSSYTPDKSSFNLATVVAETLGLGVQEESETQGPMSPLGDELYHCLEGNHKKQPFEESTRNTEDSLRFSDSTSKTPPQEELPTRVSSPVFGATSSIKSGLDLNTSLSPSLLQPGKKKHLKTLPFSNTCISRLEKTRSKSEDSALFTHHSLGSEVNKIIIQSSNKQILINKNISESLGEQNRTEYGKDSNTDKHLEPLKSLGGRTSKRKKTEEESEHEVSCPQASFDKENAFPFPMDNQFSMNGDCVMDKPLDLSDRFSAIQRQEKSQGSETSKNKFRQVTLYEALKTIPKGFSSSRKASDGNCTLPKDSPGEPCSQECIILQPLNKCSPDNKPSLQIKEENAVFKIPLRPRESLETENVLDDIKSAGSHEPIKIQTRSDHGGCELASVLQLNPCRTGKIKSLQNNQDVSFENIQWSIDPGADLSQYKMDVTVIDTKDGSQSKLGGETVDMDCTLVSETVLLKMKKQEQKGEKSSNEERKMNDSLEDMFDRTTHEEYESCLADSFSQAADEEEELSTATKKLHTHGDKQDKVKQKAFVEPYFKGDERETSLQNFPHIEVVRKKEERRKLLGHTCKECEIYYADMPAEEREKKLASCSRHRFRYIPPNTPENFWEVGFPSTQTCMERGYIKEDLDPCPRPKRRQPYNAIFSPKGKEQKT
B2: E3 ubiquitin-protein ligase RNF185 (Homo sapiens), Q96GF1 (parent)
chain: MASKGPSASASPENSSAGGPSGSSNGAGESGGQDSTFECNICLDTAKDAVISLCGHLFCWPCLHQWLETRPNRQVCPVCKAGISRDKVIPLYGRGSTGQQDPREKTPPRPQGQRPEPENRGGFQGFGFGDGGFQMSFGIGAFPFGIFATAFNINDGRPPPAVPGTPQYVDEQFLSRLFLFVALVIMFWLLIA
B3: Notch homolog 2 N-terminal-like protein A (Homo sapiens), Q7Z3S9 (parent)
chain: MCVTYHNGTGYCKCPEGFLGEYCQHRDPCEKNRCQNGGTCVAQAMLGKATCRCASGFTGEDCQYSTSHPCFVSRPCLNGGTCHMLSRDTYECTCQVGFTGKECQWTDACLSHPCANGSTCTTVANQFSCKCLTGFTGQKCETDVNECDIPGHCQHGGTCLNLPGSYQCQCLQGFTGQYCDSLYVPCAPSPCVNGGTCRQTGDFTFECNCLPETVRRGTELWERDREVWNGKEHDEN
partner: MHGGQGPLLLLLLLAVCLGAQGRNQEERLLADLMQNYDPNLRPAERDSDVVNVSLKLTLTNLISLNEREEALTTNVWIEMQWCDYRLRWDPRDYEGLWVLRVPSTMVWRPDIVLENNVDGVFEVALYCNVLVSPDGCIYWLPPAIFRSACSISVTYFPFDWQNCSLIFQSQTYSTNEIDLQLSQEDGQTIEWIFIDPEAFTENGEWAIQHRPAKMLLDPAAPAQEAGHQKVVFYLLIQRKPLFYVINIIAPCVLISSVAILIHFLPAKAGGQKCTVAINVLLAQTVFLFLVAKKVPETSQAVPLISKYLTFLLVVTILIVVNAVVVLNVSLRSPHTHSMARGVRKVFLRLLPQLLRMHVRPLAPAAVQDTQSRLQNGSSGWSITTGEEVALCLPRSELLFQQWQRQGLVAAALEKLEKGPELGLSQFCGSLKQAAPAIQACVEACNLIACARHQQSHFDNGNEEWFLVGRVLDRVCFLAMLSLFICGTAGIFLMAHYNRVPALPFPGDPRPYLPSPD
B4: STAM-binding protein (Homo sapiens), O95630 (parent)
chain: MSDHGDVSLPPEDRVRALSQLGSAVEVNEDIPPRRYFRSGVEIIRMASIYSEEGNIEHAFILYNKYITLFIEKLPKHRDYKSAVIPEKKDTVKKLKEIAFPKAEELKAELLKRYTKEYTEYNEEKKKEAEELARNMAIQQELEKEKQRVAQQKQQQLEQEQFHAFEEMIRNQELEKERLKIVQEFGKVDPGLGGPLVPDLEKPSLDVFPTLTVSSIQPSDCHTTVRPAKPPVVDRSLKPGALSNSESIPTIDGLRHVVVPGRLCPQFLQLASANTARGVETCGILCGKLMRNEFTITHVLIPKQSAGSDYCNTENEEELFLIQDQQGLITLGWIHTHPTQTAFLSSVDLHTHCSYQMMLPESVAIVCSPKFQETGFFKLTDHGLEEISSCRQKGFHPHSKDPPLFCSCSHVTVVDRAVTITDLR
partner: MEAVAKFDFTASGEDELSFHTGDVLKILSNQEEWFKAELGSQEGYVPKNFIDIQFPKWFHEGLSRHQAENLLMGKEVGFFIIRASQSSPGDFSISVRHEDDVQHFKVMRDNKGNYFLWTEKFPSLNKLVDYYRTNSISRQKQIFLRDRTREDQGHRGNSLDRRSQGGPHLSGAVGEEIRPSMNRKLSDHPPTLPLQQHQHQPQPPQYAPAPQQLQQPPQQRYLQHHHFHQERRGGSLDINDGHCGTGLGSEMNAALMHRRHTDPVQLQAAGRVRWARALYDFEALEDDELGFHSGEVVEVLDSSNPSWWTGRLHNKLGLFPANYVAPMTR
B5: Geminin (Homo sapiens), O75496 (parent)
chain: MNPSMKQKQEEIKENIKNSSVPRRTLKMIQPSASGSLVGRENELSAGLSKRKHRNDHLTSTTSSPGVIVPESSENKNLGGVTQESFDLMIKENPSSQYWKEVAEKRRKALYEALKENEKLHKEIEQKDNEIARLKKENKELAEVAEHVQYMAELIERLNGEPLDNFESLDNQEFDSEEETVEDSLVEDSEIGTCAEGTVSSSTDAKPCI
B6: C-type lectin domain family 1 member A (Homo sapiens), Q8NC01 (parent)
chain: MQAKYSSTRDMLDDDGDTTMSLHSQGSATTRHPEPRRTEHRAPSSTWRPVALTLLTLCLVLLIGLAALGLLFFQYYQLSNTGQDTISQMEERLGNTSQELQSLQVQNIKLAGSLQHVAEKLCRELYNKAGAHRCSPCTEQWKWHGDNCYQFYKDSKSWEDCKYFCLSENSTMLKINKQEDLEFAASQSYSEFFYSYWTGLLRPDSGKAWLWMDGTPFTSELFHIIIDVTSPRSRDCVAILNGMIFSKDCKELKRCVCERRAGMVKPESLHVPPETLGEGD
partner: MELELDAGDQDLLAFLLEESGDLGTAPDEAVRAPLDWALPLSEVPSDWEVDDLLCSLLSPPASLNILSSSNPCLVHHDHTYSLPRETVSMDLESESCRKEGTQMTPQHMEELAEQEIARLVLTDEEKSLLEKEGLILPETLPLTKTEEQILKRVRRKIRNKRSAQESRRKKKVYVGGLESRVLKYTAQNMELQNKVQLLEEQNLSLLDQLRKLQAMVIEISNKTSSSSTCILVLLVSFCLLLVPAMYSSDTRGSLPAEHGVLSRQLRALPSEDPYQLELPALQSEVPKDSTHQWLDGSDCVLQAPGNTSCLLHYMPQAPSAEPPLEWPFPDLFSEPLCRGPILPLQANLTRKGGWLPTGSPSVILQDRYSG
B7: G1/S-specific cyclin-D3 (Homo sapiens), P30281 (parent)
chain: MELLCCEGTRHAPRAGPDPRLLGDQRVLQSLLRLEERYVPRASYFQCVQREIKPHMRKMLAYWMLEVCEEQRCEEEVFPLAMNYLDRYLSCVPTRKAQLQLLGAVCMLLASKLRETTPLTIEKLCIYTDHAVSPRQLRDWEVLVLGKLKWDLAAVIAHDFLAFILHRLSLPRDRQALVKKHAQTFLALCATDYTFAMYPPSMIATGSIGAAVQGLGACSMSGDELTELLAGITGTEVDCLRACQEQIEAALRESLREASQTSSSPAPKAPRGSSSQGPSQTSTPTDVTAIHL
partner: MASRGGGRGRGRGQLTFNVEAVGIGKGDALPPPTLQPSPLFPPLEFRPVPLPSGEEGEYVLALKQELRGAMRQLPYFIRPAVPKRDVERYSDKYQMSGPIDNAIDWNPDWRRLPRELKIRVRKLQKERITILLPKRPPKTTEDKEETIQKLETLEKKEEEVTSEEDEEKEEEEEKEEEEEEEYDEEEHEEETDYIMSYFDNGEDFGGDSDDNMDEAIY

Variants of B1 are the subject of one assay. Particulars: with lims1_human LIMS1, P48059.
lims1_human LIMS1, P48059, sequence (P48059 whole entry): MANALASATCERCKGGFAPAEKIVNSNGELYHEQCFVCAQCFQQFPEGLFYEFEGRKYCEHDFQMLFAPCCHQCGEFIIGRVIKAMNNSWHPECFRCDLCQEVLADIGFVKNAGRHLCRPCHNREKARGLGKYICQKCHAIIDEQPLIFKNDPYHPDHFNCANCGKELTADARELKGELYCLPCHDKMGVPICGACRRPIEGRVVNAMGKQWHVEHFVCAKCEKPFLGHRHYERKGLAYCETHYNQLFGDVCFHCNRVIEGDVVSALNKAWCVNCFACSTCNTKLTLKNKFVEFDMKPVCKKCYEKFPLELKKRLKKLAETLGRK
For E320K, the “effect of a mutation on the interaction” value is on record as “with no effect”.

In another assay the parent is B2. To be noted: with ub2e3_human UBE2E3, Q969T4.
ub2e3_human UBE2E3, Q969T4, sequence (Q969T4 whole entry): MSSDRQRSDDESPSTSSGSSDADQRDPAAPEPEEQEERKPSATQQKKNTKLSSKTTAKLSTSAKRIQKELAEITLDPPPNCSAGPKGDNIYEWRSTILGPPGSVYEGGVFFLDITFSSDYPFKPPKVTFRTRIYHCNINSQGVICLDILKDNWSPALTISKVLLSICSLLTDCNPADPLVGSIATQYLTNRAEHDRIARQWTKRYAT
For A17T, the “effect of a mutation on the interaction” value was “with no effect”.

A further assay covers variants of B3. Particulars: with achg_human CHRNG.
Take A115T: the “effect of a mutation on the interaction” value was “with no effect”.

In the case of R74Q, the “effect of a mutation on the interaction” value is given as “with no effect”.

Variants of B4 are the subject of a further assay. Particulars: with grap2_human GRAP2, O75791.
Turning to Q155H, the “effect of a mutation on the interaction” value is “disrupting interaction strength”.

Consider R255H, for which the “effect of a mutation on the interaction” value was “with no effect”.

In the next assay the parent is B5. Particulars: with zn439_human ZNF439, Q8NDP4.
zn439_human ZNF439, Q8NDP4, sequence (Q8NDP4 whole entry): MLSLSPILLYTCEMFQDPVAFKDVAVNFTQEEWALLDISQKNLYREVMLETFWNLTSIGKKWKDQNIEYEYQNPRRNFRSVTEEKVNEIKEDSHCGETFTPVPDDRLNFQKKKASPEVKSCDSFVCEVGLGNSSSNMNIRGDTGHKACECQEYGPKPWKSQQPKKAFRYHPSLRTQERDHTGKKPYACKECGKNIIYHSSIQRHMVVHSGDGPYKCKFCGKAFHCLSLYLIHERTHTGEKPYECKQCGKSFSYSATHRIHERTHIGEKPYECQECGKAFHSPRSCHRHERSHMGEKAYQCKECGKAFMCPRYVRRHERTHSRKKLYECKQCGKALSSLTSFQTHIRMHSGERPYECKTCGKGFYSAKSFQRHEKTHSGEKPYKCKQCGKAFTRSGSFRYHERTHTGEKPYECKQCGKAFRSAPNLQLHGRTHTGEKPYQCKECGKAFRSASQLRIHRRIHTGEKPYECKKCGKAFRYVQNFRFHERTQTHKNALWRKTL
Regarding E167D, the “effect of a mutation on the interaction” value is given as “with no effect”.

For the variant N15H, the “effect of a mutation on the interaction” value is “with no effect”.

A further assay covers variants of B6. To be noted: with creb3_human CREB3, O43889.
As for G26A, the “effect of a mutation on the interaction” value is reported as “with no effect”.

As to P272S, the “effect of a mutation on the interaction” value is given as “with no effect”.

The variants in a further assay derive from B7. To be noted: with rpc7l_human POLR3GL.
Take E253D: the “effect of a mutation on the interaction” value is reported as “with no effect”.
